The record followed here is US20160068605A1 (Janssen / Centocor, published 2016).

For test [1], the target named is T1, cell-surface CD3 epsilon on primary human T cells (human, UniProt P07766 23-207).
T1 construct: whole, on cells; part of the CD3/TCR complex on the cells
Description: flow cytometry on primary human T cells, anti-human IgG Alexa Fluor 647; MFI. How it is done:
The resulting panel of anti-CD3 antibodies was tested for binding against cell-surface CD3ε on primary human T cells. To do this, binding of antibodies from expression supernatants was visualized using a polyclonal anti-human secondary antibody and analyzed by flow cytometry. Briefly, binding of anti-CD3 antibodies to cell-surface CD3ε was assessed by flow cytometry using primary Human T lymphocytes purified by negative selection (Biological Specialty, Colmar, USA). Expression supernatants or purified antibodies were normalized to 10 μg/ml in media or FACS buffer (BD BioSciences), respectively. 2×10⁵ cells were aliquoted into wells of a 96 well round-bottomed plate (CoStar) for labeling. Antibodies in expression supernatant were added to cells and incubated for 45 min at 4° C. Following centrifugation at 1300 rpm for 3 min and removal of supernatant, 50 μL of anti-human IgG (H+L) Alexa Fluor 647 secondary antibody (Life technologies Inc.) was incubated with the cells at a final concentration of 10 μg/mL for 30 min at 4° C. away from direct light. Following washing and resuspension in 30 μL FACs buffer (BD BioSciences). Sample collection was performed on an Intellicyt HTFC system using ForeCyt software. Viable single cells were gated prior to analysis of binding using the green or red fixable live/dead dyes (Life Technologies Inc.) and forward/side scatter area and height parameters, respectively. Graphs were generated in GraphPad Prism version 5 using mean fluorescence intensity values.
For orientation: A flow cytometer gives signals particle by particle.

Test [2] addresses T2, cyno CD123 ECD displayed on pDisplay-transfected cells (cynomolgus monkey).
T2 construct: ECD anchored on the surface of stably transfected HEK293 cells; also called cynoCD123 SP1 cells; cynoCD123 cells
T2 chain: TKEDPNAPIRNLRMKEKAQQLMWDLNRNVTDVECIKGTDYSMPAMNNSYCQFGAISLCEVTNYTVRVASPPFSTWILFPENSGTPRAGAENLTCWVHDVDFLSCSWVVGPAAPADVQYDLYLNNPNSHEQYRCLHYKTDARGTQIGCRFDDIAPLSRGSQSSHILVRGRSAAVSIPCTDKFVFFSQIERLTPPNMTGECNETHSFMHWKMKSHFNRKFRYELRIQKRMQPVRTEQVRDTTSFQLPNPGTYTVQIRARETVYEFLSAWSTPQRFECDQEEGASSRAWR
Description: MSD cell binding on 293F pDisplay cells; fold change over background; parental 293F cells as control. How it is done: (§1) The object of the screening assay was to identify antibodies that bound to cells expressing hCD123 SP1 and SP2 as well as cross reactivity with cells expressing cynoCD123 SP1.
(§2) Cells were immobilized and phages were assayed in triplicate. […] 5000 cells per well were plated into a 384 well plate (MA6000, cat. L21XB, MSD) and allowed to adhere for 2 hr. Cells were then blocked with 20% FBS in PBS (Gibco) for 15 mins. Antibody supernatants were then added and left at RT for 1 hr. Cells were washed 3 times with PBS and a ruthenium labeled secondary antibody (Jackson Immuno Research) was then added at 1 μg/mL and incubated for 1 hr at room temperature. A further washing step was then applied and 35 μL per well of MSD Read buffer T (surfactant free) was then added and incubated for 30 min for detection. Plates were then read using Sector Imager 2400 (MSD). Data was normalized to controls and graphed using GraphPad Prism Version 5. A positive binder was determined to be a hit with a signal 3× greater than background (FIGS. 2A, B and C).

Test [3] has as its target T3, human CD123 SP2 ECD displayed on pDisplay-transfected cells (human, UniProt P26951 101-305).
T3 construct: ECD anchored on the surface of stably transfected HEK293 cells; also called hCD123 SP2 cells; pDisplay CD123SP2
T3 sequence: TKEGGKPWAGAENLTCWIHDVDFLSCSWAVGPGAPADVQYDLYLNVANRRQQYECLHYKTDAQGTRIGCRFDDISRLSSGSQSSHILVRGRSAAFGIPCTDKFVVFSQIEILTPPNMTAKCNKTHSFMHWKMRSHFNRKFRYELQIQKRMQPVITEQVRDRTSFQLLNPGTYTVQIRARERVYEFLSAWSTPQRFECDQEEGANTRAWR
Described as above. How it is done: as §1, §2

The target in test [4] is T4, Recombinant human CD123 SP1 ECD-His tag protein (human, UniProt P26951 20-305).
T4 construct: bought from R&D Systems (#301-R3/CF); biotinylated for some assays; also called rhCD123 SP1; huCD123 ECD SP1
T4 sequence: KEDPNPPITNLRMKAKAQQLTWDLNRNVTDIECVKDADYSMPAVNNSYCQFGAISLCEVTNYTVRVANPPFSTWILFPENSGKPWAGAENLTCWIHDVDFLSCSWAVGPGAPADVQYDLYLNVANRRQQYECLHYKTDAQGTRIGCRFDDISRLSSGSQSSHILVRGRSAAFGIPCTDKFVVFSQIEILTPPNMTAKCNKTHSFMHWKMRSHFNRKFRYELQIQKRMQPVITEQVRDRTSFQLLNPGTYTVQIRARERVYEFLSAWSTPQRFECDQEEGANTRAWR
Description: SPR ProteOn, captured mAb. How it is done:
(§3) The biosensor surface was prepared by covalently coupling Goat anti-Human IgG (Fc) to the surface of a GLC chip (BioRad) using the manufacturer instructions for amine-coupling chemistry. […] The RU immobilized also included a goat anti-mouse Fc antibody that was added to capture other antibodies not included in the ones reported here. Since the mixture was 1:1 about 50% of these RU immobilized are expected to be goat anti-human Fc. The kinetic experiments were performed at 25° C. in running buffer (PBS pH 7.4, 0.005% P20, 3 mM EDTA). […] The reference spots (Goat anti-Human IgG (Fc)-modified surface) containing no candidate captured were used as a reference surface. Capture of mAb was followed by 3 min injection (association phase) of antigen at 40 μL/min, followed by 10 min of buffer flow (dissociation phase). […] Data was processed on the instrument software. Double reference subtraction of the data was performed by subtracting the curves generated by buffer injection from the reference-subtracted curves for analyte injections. Kinetic analysis of the data was performed using 1:1 Langmuir binding model with group fit. The result for each mAb was reported in the format of Kₐ (kon or on-rate), Kd (koff or off-rate), KD (Equilibrium dissociation constant) (Table 5).

In test [5] the target is T5, Recombinant human CD123 SP2 ECD protein (human, UniProt P26951 101-303).
T5 construct: also called rhCD123 SP2; CD123 ECD SP2
T5 sequence: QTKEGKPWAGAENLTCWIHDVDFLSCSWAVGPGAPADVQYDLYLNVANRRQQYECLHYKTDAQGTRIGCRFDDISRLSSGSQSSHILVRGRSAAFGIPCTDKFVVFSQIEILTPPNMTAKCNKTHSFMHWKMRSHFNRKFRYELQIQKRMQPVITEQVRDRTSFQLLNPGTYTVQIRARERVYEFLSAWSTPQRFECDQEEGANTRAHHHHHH
Description: SPR ProteOn, captured mAb. How it is done: as §3

The target in test [6] is T4, Recombinant human CD123 SP1 ECD-His tag …. Description: SPR Biacore 3000, captured mAb. How it is done: (§4) Kinetic studies were performed at 25° C. using a Biacore 3000 (BIAcore, Inc., now part of GE Healthcare). […] Sheep anti-Human Fd specific antibody (The binding site Prod # PC075) was covalently attached to two flow cells (normally 3 and 4) of the carboxymethyl dextran coated gold surfaces (CM-5 Chip, Biacore). The carboxymethyl groups of dextran were activated with N-Ethyl-N′-(3-Dimethylaminopropyl)carbodiimide (EDC) and N-hydroxysuccinimide (NHS). The antibodies were coupled at pH 4.5 in 10 mM sodium acetate. Any remaining reactive sites on the surface were blocked by reaction with ethanolamine. […] Association data was collected for 2 min followed by 10 min of dissociation. The surface was regenerated with 30 μL of 100 mM H3PO4 100 μL/min. All samples were prepared in D-PBS containing 3 mM EDTA and 0.005% surfactant P20. Data reported is the difference in SPR signal between the flow cell containing the captured antibody or Fab and a reference cell without captured antibody or Fab. Additional instrumental contributions to the signal were removed by subtraction of the data from the blank injection from the reference-subtracted signal. Data were performed in triplicate and analyzed by fitting association and dissociation phases at all concentrations (global fit) with a 1:1 binding model using the BIAevaluation software (BIAcore, Inc.). […] Data presented is an average.
(SPR reads the build-up and loss of mass on a sensor chip optically.)

Test [7] has the same target. In words: SPR Biacore 3000, captured Fab. How it is done: as §4

Positions count from the first letter of the chain named. In names and notes the source's numbering stands. Several values for one entry are separate records, joined by “and”; a condition that tells them apart may be missing. Equal values may be shown once.

T1 sequence (P07766 23-207): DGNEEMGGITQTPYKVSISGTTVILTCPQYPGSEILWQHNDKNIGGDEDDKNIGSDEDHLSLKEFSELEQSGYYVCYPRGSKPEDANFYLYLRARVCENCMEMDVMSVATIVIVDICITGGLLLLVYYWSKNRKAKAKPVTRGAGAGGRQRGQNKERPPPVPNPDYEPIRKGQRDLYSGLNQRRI

B1: G11 (antibody, V domains shown)
VH: EVQLLESGGGLVQPGGSLRLSCAASGFTFSSYGMSWVRQAPGKGLEWVSGINGGGGSKYYADSVKGRFTISRDNSKNTLYLQMNSLRAEDTAVYYCAKTSAQRFDYWGQGTLVTVSS
VL: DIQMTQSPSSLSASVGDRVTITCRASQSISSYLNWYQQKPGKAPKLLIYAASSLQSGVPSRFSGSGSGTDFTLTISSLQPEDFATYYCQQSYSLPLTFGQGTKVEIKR
notes: in-house phage-derived anti-CD3 positive control with the same Fc region as the tested antibodies
As to B1, the binding result in test [1] is “binds”.

B2: I3RB22 (antibody, IgG1, V domains shown)
VH: QVQLVQSGAEVKKPGSSVKVSCKASGGTFSSYAISWVRQAPGQGLEWMGGIIPIFGTANYAQKFQGRVTITADESTSTAYMELSSLRSEDTAVYYCARNLFYWADSVYLDYWGQGTLVTVSS
VL: EIVLTQSPATLSLSPGERATLSCRASQSVNKWLAWYQQKPGQAPRLLIYYASNRATGIPARFSGSGSGTDFTLTISSLEPEDFAVYYCQQGIDWPRTFGQGTKVEIK
notes: IgG1
Take B2: the binding result in test [2] was “no binding (tested: 10 µg/mL)”. The binding result in test [3] was “no binding (tested: 10 µg/mL)”. In test [4], the Kd worked out at 4.12 nM, the koff was found to be 0.00106 s⁻¹ and the kon was determined as 257000 M⁻¹ s⁻¹. Moreover, the binding result in test [5] is reported as “no binding (tested: 400 nM)”.

B3: I3RB9 (antibody, IgG1, V domains shown)
VH: B2 VH with N99G, L100A, F101R, Y102W, W103F, A104N, D105P, S106P, V107E, Y108N
VL: not shown
notes: IgG1; also called I3RB09
For B3, the binding result in test [2] is listed as “no binding (tested: 10 µg/mL)”. For the same molecule, the binding result in test [3] is listed as “no binding (tested: 10 µg/mL)”. Besides, in test [4], the Kd is 12.4 nM, the koff is 0.00843 s⁻¹ and the kon amounted to 680000 M⁻¹ s⁻¹. The binding result in test [5] is “no binding (tested: 400 nM)”.

B4: CD3B144 (antibody, IgG1, V domains shown)
VH: EVQLVESGGGLVQPGGSLRLSCAASGFTFNTYAMNWVRQAPGKGLEWVARIRSKYNNYATYYAASVKGRFTISRDDSKNSLYLQMNSLKTEDTAVYYCARHGNFGNSYVSWFAYWGQGTLVTVSS
VL: QSVLTQPPSVSAAPGQKVTISCRSSTGAVTTSNYANWVQQLPGTAPKGLIGGTNKRAPGIPDRFSGSKSGTSATLGITGLQTGDEADYYCALWYSNLWVFGGGTKLTVL
notes: IgG1 constant region with L234A, L235A, F405L; human lambda light chain constant region
Consider B4, for which, in test [1], the binding result was “no binding”.

B5: I3RB35 (antibody, IgG1, V domains shown)
VH: QVQLVQSGAEVKKPGSSVKVSCKASGGTFSSYAISWVRQAPGQGLEWMGGIIPIFGTANYAQKFQGRVTITADESTSTAYMELSSLRSEDTAVYYCARHLFWDAGPLDYWGQGTLVTVSS
VL: DIQMTQSPSSLSASVGDRVTITCRASQSISSYLNWYQQKPGKAPKLLIYAASSLQSGVPSRFSGSGSGTDFTLTISSLQPEDFATYYCQQYFSPPYTFGQGTKVEIK
notes: IgG1
Turning to B5, in test [6], the Kd came out at 4.8 nM, the koff was found to be 0.00258 s⁻¹ and the kon was 540000 M⁻¹ s⁻¹. Besides, the binding result in test [2] was “binds”. In test [4], the Kd is 2.83 nM, the koff stood at 0.00293 s⁻¹ and the kon was determined as 1.04e+06 M⁻¹ s⁻¹.

B6: I3RB37 (antibody, IgG1, V domains shown)
VH: B5 VH with H99D, L100K, F101T, W102D, D103F, A104P, G105S, P106R
VL: B5 VL with S30A, S31T, Y32W, F92I, S93T, P94F, Y96L
notes: IgG1
On to B6, for which, in test [6], the Kd was determined as 9.7 nM, the koff stood at 0.0053 s⁻¹ and the kon is 545000 M⁻¹ s⁻¹. For the same molecule, the binding result in test [2] is listed as “binds”. Further, the binding result in test [3] is recorded as “no binding (tested: 10 µg/mL)”. In addition, in test [4], the Kd was 6.27 nM and 5.15 nM; the koff is 0.00669 s⁻¹ and 0.00621 s⁻¹; the kon was 1.07e+06 M⁻¹ s⁻¹ and 1.21e+06 M⁻¹ s⁻¹.

B7: I3RB122 (Fab, V domains shown)
VH: B5 VH with H99D, L100K, F101T, W102D, D103F, A104P, G105S, P106R
VL: B5 VL with S30A, S31T, Y32W, F92I, S93T, P94F, Y96L
notes: also called Fab of I3RB37
Consider B7, for which, in test [7], the Kd was determined as 11.5 nM, the koff was 0.0045 s⁻¹ and the kon worked out at 393000 M⁻¹ s⁻¹.

B8: I3RB6 (antibody, IgG1, V domains shown)
VH: QVQLVQSGAEVKKPGSSVKVSCKASGGTFSSYAISWVRQAPGQGLEWMGGIIPIFGTANYAQKFQGRVTITADESTSTAYMELSSLRSEDTAVYYCARGLFNWSNVALDYWGQGTLVTVSS
VL: not shown
notes: IgG1; also called I3RB06
On to B8, for which the binding result in test [2] is on record as “no binding (tested: 10 µg/mL)”. The binding result in test [3] is on record as “no binding (tested: 10 µg/mL)”. In addition, in test [4], the Kd was 11.5 nM, the koff was determined as 0.00593 s⁻¹ and the kon amounted to 514000 M⁻¹ s⁻¹. The binding result in test [5] is recorded as “no binding (tested: 400 nM)”.

For orientation: Kd means a measure of binding affinity in units of concentration. As a reminder, the koff is the rate constant with which the complex falls apart. For orientation: kon means the rate constant with which the complex forms.
